Reference: publication doi:10.1101/2021.10.25.465661 (bioRxiv, 2021)

Target: the molecule itself
Assay: SEC-MALS

B1: Qin eTud3 (Qin 959-1195) (domain or fragment, Drosophila melanogaster, UniProt Q9VE55 959-1195, looked up)
chain: VRPVELSPYRMPDNTERNKRTTVNILYVRKPDEFYVTLPHFQKAINNLQKSVQKAAAAMYQNMLPRTDWQVGDMCYARVQANCDSQALWYRGVVTGVIPPGITCPIVRYQVHLRDLGELIDDVHSSSLANIDEADMRISSSAKRCHLHGIRPIGDEWSKDAIDFFMDQLKAYNEIHVTGRGRTENSLSVILWGSLSILTGPFSPATIKYVNINKALLMAGMAEKDHNSDSEDDQQSM
stoichiometry N: 2
